Where two headings read alike, the source gives them in different places.
Columns and labels:
[1] = test system: subjects of 64 clinical studies; details: published clinical trials, cited from earlier work; for IRR: proportion of subjects in the study population with T cell responses induced by the study vaccine
[2] = test system: TSA; details: cited from earlier work
[3] = test system: metastatic ovarian adenocarcinoma; assay: Patient-A clinical outcome and tumor MRI; format: in vivo, human
Excerpt: 2017-2018: Patient-A received 8 cycles of vaccination as add-on therapy, and lived 17 months (528 days) after start of the treatment. […] They died in October 2018.
Patient' tumor MRI findings (Baseline Apr. 15, 2016) (BL: baseline for tumor response evaluation on FIG. 22) Disease was confined primarily to liver and lymph nodes. The use of MRI limits detection of lung (pulmonary) metastasis May 2016-January 2017: Olaparib treatment (FU1: follow up 1 on FIG. 22) Dec. […] Peritoneal carcinomatosis with increased amount of ascites. Progressive hepatic tumor and lymph node
Jul. 26, 2017 (after the 2nd Cycle of PIT): (FU4 on FIG. 22) Progression/Pseudo-Progression • Rapid progression in lymph nodes, hepatic, retroperitoneal and thoracic areas, significant pleural fluid and ascites. Initiate Carboplatin, Gemcitabine, Avastin. Sep. […] Nov. […] Remission in hepatic, retroperitoneal area and lymph nodes

[4] = TSA expression rate in BLADDER cancer
[5] = FU1, Olaparib treatment May 2016-January 2017
[6] = FU2, Dec. 25, 2016, before PIT vaccine treatment
[7] = TSA expression rate in PROSTATE cancer
[8] = TSA expression rate in Cervical cancer
[9] = TSA expression rate in HEAD and NECK
[10] = TSA expression rate in MELANOMA
[11] = TSA expression rate in Esophageal
[12] = TSA expression rate in GASTRIC cancer
[13] = TSA expression rate in LEUKEMIAS
[14] = TSA expression rate in PEDIATRIC
[15] = FU3, Apr. 6, 2017, after TOPO protocol
[16] = TSA expression rate in LUNG cancer

Her2/neu peptide vaccine (p971) (ELVSEFSRM; UniProt P04626 971-979, looked up, fragment)
IRR [1]: 54%

CASC5
TSA Expression Rate (ER) ([2]; LUNG): 41% | TSA Expression Rate (ER) ([2]; PANCREATIC): 27%

MPHOSPH1
Expression Rate (ER) % [2, 4]: 90%

Her2/neu peptide vaccine (p688) (RRLLQETEL; UniProt P04626 688-696, looked up, fragment)
IRR [1]: 31%

O=C(c1cc(Cc2n[nH]c(=O)c3ccccc23)ccc1F)N1CCN(C(=O)C2CC2)CC1 [Olaparib]
SUM of lesions (% Δ from BL) [3, 5]: −66.3% | TL1 (% Δ from BL) [3, 5]: −56.1% | TL2 (% Δ from BL) [3, 5]: −100.0% | TL3 (% Δ from BL) [3, 5]: −59.4% | TL4 (% Δ from BL) [3, 5]: −65.8% | SUM of lesions (% Δ from BL) [3, 6]: −76.0% | TL1 (% Δ from BL) [3, 6]: −44.4% | TL2 (% Δ from BL) [3, 6]: −100.0% | TL3 (% Δ from BL) [3, 6]: −62.3% | TL4 (% Δ from BL) [3, 6]: −100.0%

DCAF12
TSA Expression Rate (ER) ([2]; LUNG): 89% | Expression Rate (ER) % [2, 7]: 59%

MUC-1
Expression Rate (ER) % [2, 7]: 34%

LDHC
TSA Expression Rate (ER) ([2]; BREAST): 35% | TSA Expression Rate (ER) ([2]; LUNG): 29% | TSA Expression Rate (ER) ([2]; OVARIAN): 43% | TSA Expression Rate (ER) ([2]; THYROID): 25% | Expression Rate (ER) % ([2]; TSA expression rate in CRC): 15% | Expression Rate (ER) % [2, 8]: 83% | Expression Rate (ER) % [2, 9]: 0% | Expression Rate (ER) % ([2]; TSA expression rate in Kidney): 57% | Expression Rate (ER) % [2, 10]: 44% | Expression Rate (ER) % [2, 7]: 38%

MSLN
TSA Expression Rate (ER) ([2]; PANCREATIC): 96%

DKK1
TSA Expression Rate (ER) ([2]; PANCREATIC): 84%

TEX15
TSA Expression Rate (ER) ([2]; BREAST): 0% | TSA Expression Rate (ER) ([2]; LUNG): 21% | TSA Expression Rate (ER) ([2]; THYROID): 0% | Expression Rate (ER) % [2, 4]: 21% | Expression Rate (ER) % ([2]; TSA expression rate in CRC): 0% | Expression Rate (ER) % [2, 11]: 20% | Expression Rate (ER) % [2, 9]: 11% | Expression Rate (ER) % ([2]; TSA expression rate in Kidney): 33% | Expression Rate (ER) % [2, 10]: 27% | Expression Rate (ER) % [2, 7]: 13%

PRAME
TSA Expression Rate (ER) ([2]; BRAIN): 56% | TSA Expression Rate (ER) ([2]; BREAST): 49% | TSA Expression Rate (ER) ([2]; LUNG): 63% | TSA Expression Rate (ER) ([2]; OVARIAN): 59% | TSA Expression Rate (ER) ([2]; THYROID): 60% | Expression Rate (ER) % [2, 4]: 19% | Expression Rate (ER) % ([2]; TSA expression rate in CRC): 4% | Expression Rate (ER) % [2, 12]: 21% | Expression Rate (ER) % [2, 9]: 61% | Expression Rate (ER) % ([2]; TSA expression rate in Kidney): 40% | Expression Rate (ER) % [2, 13]: 23% | Expression Rate (ER) % [2, 10]: 90% | Expression Rate (ER) % [2, 14]: 75% | Expression Rate (ER) % [2, 7]: 10%

JARID1B
TSA Expression Rate (ER) ([2]; BREAST): 76% | TSA Expression Rate (ER) ([2]; HCC): 29% | TSA Expression Rate (ER) ([2]; LUNG): 55% | TSA Expression Rate (ER) ([2]; OVARIAN): 71% | Expression Rate (ER) % [2, 13]: 60% | Expression Rate (ER) % [2, 10]: 100% | Expression Rate (ER) % [2, 7]: 100%

CDCA1
TSA Expression Rate (ER) ([2]; BREAST): 64% | TSA Expression Rate (ER) ([2]; HCC): 100% | TSA Expression Rate (ER) ([2]; LUNG): 85% | Expression Rate (ER) % [2, 4]: 100% | Expression Rate (ER) % ([2]; TSA expression rate in CRC): 40% | Expression Rate (ER) % [2, 8]: 18% | Expression Rate (ER) % [2, 11]: 22% | Expression Rate (ER) % [2, 12]: 0% | Expression Rate (ER) % ([2]; TSA expression rate in Kidney): 100% | Expression Rate (ER) % [2, 7]: 85%

DMRT1
Expression Rate (ER) % [2, 7]: 24%

SPINLW1
TSA Expression Rate (ER) ([2]; BRAIN): 47%

NKX3.1
TSA Expression Rate (ER) ([2]; THYROID): 0% | Expression Rate (ER) % [2, 7]: 70%

SSX-7
TSA Expression Rate (ER) ([2]; BRAIN): 0%

EZH2
TSA Expression Rate (ER) ([2]; BRAIN): 100%

TSGA10
TSA Expression Rate (ER) ([2]; BRAIN): 83% | TSA Expression Rate (ER) ([2]; BREAST): 70% | TSA Expression Rate (ER) ([2]; HCC): 20% | TSA Expression Rate (ER) ([2]; OVARIAN): 35% | Expression Rate (ER) % [2, 4]: 38% | Expression Rate (ER) % ([2]; TSA expression rate in CRC): 5% | Expression Rate (ER) % [2, 10]: 25% | Expression Rate (ER) % [2, 7]: 15%

CC[C@@]1(O)C(=O)OCc2c1cc1n(c2=O)Cc2cc3c(CN(C)C)c(O)ccc3nc2-1 [TOPO protocol]
SUM of lesions (% Δ from BL) [3, 15]: −68.9% | TL1 (% Δ from BL) [3, 15]: −44.8% | TL2 (% Δ from BL) [3, 15]: −47.1% | TL3 (% Δ from BL) [3, 15]: −62.0% | TL4 (% Δ from BL) [3, 15]: −100.0%

WT1
TSA Expression Rate (ER) ([2]; BRAIN): 81% | TSA Expression Rate (ER) ([2]; BREAST): 7% | TSA Expression Rate (ER) ([2]; HCC): 86% | TSA Expression Rate (ER) ([2]; OVARIAN): 63% | TSA Expression Rate (ER) ([2]; PANCREATIC): 72% | TSA Expression Rate (ER) ([2]; THYROID): 97% | Expression Rate (ER) % ([2]; TSA expression rate in CRC): 91% | Expression Rate (ER) % [2, 8]: 5% | Expression Rate (ER) % [2, 11]: 88%

TDRD4
TSA Expression Rate (ER) ([2]; HCC): 14%

MAGE-A10
TSA Expression Rate (ER) ([2]; BREAST): 34% | TSA Expression Rate (ER) ([2]; HCC): 15% | TSA Expression Rate (ER) ([2]; LUNG): 24% | TSA Expression Rate (ER) ([2]; OVARIAN): 38% | TSA Expression Rate (ER) ([2]; PANCREATIC): 1% | TSA Expression Rate (ER) ([2]; THYROID): 2% | Expression Rate (ER) % [2, 4]: 28% | Expression Rate (ER) % ([2]; TSA expression rate in CRC): 3% | Expression Rate (ER) % [2, 8]: 0% | Expression Rate (ER) % [2, 11]: 27% | Expression Rate (ER) % [2, 12]: 30% | Expression Rate (ER) % [2, 9]: 12% | Expression Rate (ER) % ([2]; TSA expression rate in Kidney): 1% | Expression Rate (ER) % [2, 13]: 0% | Expression Rate (ER) % [2, 10]: 45% | Expression Rate (ER) % [2, 14]: 33% | Expression Rate (ER) % [2, 7]: 10%

BAGE-5 (RLMKEESPVVSWRLEPEDGTALCFIF; UniProt Q86Y27 18-43, looked up)
Expression Rate (ER) % [2, 10]: 9%

SYCE1
Expression Rate (ER) % [2, 16]: 11%

EPHA2
TSA Expression Rate (ER) ([2]; BRAIN): 95% | Expression Rate (ER) % [2, 14]: 100%

BAGE-1 (RLMKEESPVVSWRLEPEDGTALCFIF; UniProt Q13072 18-43, looked up)
TSA Expression Rate (ER) ([2]; BREAST): 9% | Expression Rate (ER) % ([2]; TSA expression rate in CRC): 0% | Expression Rate (ER) % [2, 11]: 6% | Expression Rate (ER) % [2, 9]: 6% | Expression Rate (ER) % ([2]; TSA expression rate in Kidney): 0% | Expression Rate (ER) % [2, 16]: 10% | Expression Rate (ER) % [2, 10]: 26% | Expression Rate (ER) % [2, 7]: 0%

SSX-1
TSA Expression Rate (ER) ([2]; BRAIN): 0% | TSA Expression Rate (ER) ([2]; BREAST): 9% | TSA Expression Rate (ER) ([2]; HCC): 69% | TSA Expression Rate (ER) ([2]; OVARIAN): 2% | TSA Expression Rate (ER) ([2]; PANCREATIC): 0% | TSA Expression Rate (ER) ([2]; THYROID): 0% | Expression Rate (ER) % [2, 4]: 7% | Expression Rate (ER) % ([2]; TSA expression rate in CRC): 2% | Expression Rate (ER) % [2, 8]: 4% | Expression Rate (ER) % [2, 11]: 0% | Expression Rate (ER) % [2, 12]: 13% | Expression Rate (ER) % [2, 9]: 40% | Expression Rate (ER) % ([2]; TSA expression rate in Kidney): 0% | Expression Rate (ER) % [2, 13]: 31% | Expression Rate (ER) % [2, 16]: 8% | Expression Rate (ER) % ([2]; TSA expression rate in LYMPHOMAS): 6% | Expression Rate (ER) % [2, 10]: 25% | Expression Rate (ER) % [2, 14]: 76% | Expression Rate (ER) % [2, 7]: 7%

DBPC
TSA Expression Rate (ER) ([2]; BREAST): 50% | TSA Expression Rate (ER) ([2]; HCC): 40% | TSA Expression Rate (ER) ([2]; LUNG): 30% | TSA Expression Rate (ER) ([2]; OVARIAN): 20% | TSA Expression Rate (ER) ([2]; PANCREATIC): 60% | Expression Rate (ER) % ([2]; TSA expression rate in CRC): 90% | Expression Rate (ER) % [2, 12]: 50% | Expression Rate (ER) % ([2]; TSA expression rate in Kidney): 10% | Expression Rate (ER) % [2, 7]: 40%

SOX-6
TSA Expression Rate (ER) ([2]; BRAIN): 60%

Iplilimumab (NYESO-1 specific response)
IRR [1]: 72% | ORR ([1]; proportion of subjects with objective response (complete and partial response) after vaccination): 25%

OIP5
Expression Rate (ER) % [2, 12]: 48% | Expression Rate (ER) % [2, 9]: 12%
